This note sets out measurements from article PMC6713926 (2019).

Residue numbers refer to the chain shown, from its start. In names and notes the source's numbering stands.

The assay addresses Biotinylated C3b (human, UniProt P01024 23-667; P01024 749-1663, biotin (Maleimide-PEG2-Biotin)). Description: BLI.

Biotinylated C3b, sequence (P01024 23-667, chain 1 of 2): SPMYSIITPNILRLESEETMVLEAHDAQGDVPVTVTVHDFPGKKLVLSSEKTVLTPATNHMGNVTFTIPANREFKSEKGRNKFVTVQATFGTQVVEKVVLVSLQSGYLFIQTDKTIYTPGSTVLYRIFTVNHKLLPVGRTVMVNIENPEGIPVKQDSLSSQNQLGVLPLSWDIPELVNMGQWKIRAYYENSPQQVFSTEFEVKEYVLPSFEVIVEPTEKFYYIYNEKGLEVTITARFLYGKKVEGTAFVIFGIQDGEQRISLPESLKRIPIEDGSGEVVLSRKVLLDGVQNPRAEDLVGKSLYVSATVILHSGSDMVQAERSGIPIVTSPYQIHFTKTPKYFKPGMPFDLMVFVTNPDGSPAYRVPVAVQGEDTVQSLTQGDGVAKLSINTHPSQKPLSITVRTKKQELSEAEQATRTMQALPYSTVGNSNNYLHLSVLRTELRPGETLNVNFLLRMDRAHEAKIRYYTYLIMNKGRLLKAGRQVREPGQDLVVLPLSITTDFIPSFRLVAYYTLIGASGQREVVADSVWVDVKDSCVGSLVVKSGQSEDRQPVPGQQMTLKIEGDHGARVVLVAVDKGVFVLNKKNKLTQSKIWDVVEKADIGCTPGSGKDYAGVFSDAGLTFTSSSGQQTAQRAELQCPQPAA
Biotinylated C3b, sequence (P01024 749-1663, chain 2 of 2): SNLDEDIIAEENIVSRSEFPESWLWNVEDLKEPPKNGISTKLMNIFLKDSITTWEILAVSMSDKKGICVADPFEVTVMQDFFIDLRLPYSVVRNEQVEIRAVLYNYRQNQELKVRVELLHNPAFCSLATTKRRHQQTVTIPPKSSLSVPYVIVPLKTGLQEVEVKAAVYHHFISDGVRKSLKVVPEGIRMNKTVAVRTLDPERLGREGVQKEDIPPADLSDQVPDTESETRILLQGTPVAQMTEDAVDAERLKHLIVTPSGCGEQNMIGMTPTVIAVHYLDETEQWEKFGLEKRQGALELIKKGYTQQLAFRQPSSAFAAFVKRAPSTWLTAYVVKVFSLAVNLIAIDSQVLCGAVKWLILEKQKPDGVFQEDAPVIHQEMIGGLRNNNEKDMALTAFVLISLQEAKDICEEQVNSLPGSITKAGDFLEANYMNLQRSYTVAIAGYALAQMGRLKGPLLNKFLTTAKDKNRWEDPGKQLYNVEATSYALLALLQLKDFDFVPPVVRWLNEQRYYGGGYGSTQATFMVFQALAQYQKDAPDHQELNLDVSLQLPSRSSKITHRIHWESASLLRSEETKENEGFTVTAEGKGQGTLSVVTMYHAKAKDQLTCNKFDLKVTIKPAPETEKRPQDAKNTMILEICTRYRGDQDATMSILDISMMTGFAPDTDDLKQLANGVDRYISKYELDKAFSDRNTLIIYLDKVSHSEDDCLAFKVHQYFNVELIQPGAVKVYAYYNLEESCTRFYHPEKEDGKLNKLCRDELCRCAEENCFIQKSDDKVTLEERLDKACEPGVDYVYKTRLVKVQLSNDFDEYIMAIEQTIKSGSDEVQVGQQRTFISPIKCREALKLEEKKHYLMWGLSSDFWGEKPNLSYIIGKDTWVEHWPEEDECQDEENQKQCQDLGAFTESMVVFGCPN

B1: FPht Q343R (complex)
chain 1: DPVLCFTQYEESSGKCKGLLGGGVSVEDCCLNTAFAYQKRSGGLCQPCRSPRWSLWSTWAPCSVTCSEGSQLRYRRCVGWNGQCSGKVAPGTLEWQLQACEDQQCCPEMGGWSGWGPWEPCSVTCSKGTRTRRRACNHPAPKCGGHCPGQAQESEACDTQQVCPTHGAWATWGPWTPCSASCHGGPHEPKETRSRKCSAPEPSQKPPGKPCPGLAYEQRRCTGLPPCP
chain 2: VAGGWGPWGPVSPCPVTCGLGQTMEQRTCNHPVPQHGGPFCAGDATRTHICNTAVPCPVDGEWDSWGEWSPCIRRNMKSISCQEIPGRQSRGRTCRGRKFDGHRCAGQQQDIRHCYSIQHCPLKGSWSEWSTWGLCMPPCGPNPTRARQRLCTPLLPKYPPTVSMVEGQGEKNVTFWGRPLPRCEELQGQKLVVEEKRPCLHVPACKDPEEEEL
As to B1, the Kd (commonly the equilibrium constant for the complex coming apart) is 4 µM.

B2: FPht Y414D (complex)
chain 1: B1 chain 1
chain 2: B1 chain 2 with R88Q, Y159D
In turn, B2 came in with a Kd of 5 µM.
